Earlier results on one substance are cited in article PMC8694941 (RSC Advances, 2021).

For this series the following is noted: commonly used comparator tracer.

On to [^68Ga]Ga-DOTA-c(RGDfK) (head to tail), for which the “partition coefficient (log D)” value is reported as “around −3.43”.
